Here are results for 3 molecules from patent publication US6699715 (Bristol-Myers Squibb, dated 2004).

For experiment [1], the target named is T1, human CD28 (human, UniProt P10747 19-220).
T1 construct: whole, on cells; also called CD28 receptor; CD28 CHO cells
In words: cell-based or functional assay.

Experiment [2] deals with T2, L6 antigen (human, UniProt P30408 1-202).
T2 construct: whole, on cells; also called tumor associated antigen L6; L6 molecule
T2 sequence (looked up): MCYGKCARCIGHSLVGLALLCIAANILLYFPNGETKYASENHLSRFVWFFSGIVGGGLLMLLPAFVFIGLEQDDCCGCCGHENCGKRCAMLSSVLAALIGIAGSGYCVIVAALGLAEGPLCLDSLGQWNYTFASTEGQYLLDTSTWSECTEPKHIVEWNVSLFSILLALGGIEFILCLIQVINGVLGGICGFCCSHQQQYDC
In words: flow cytometry on L6 positive H2981 tumor cells.

Experiment [3] deals with T2, L6 antigen. In words: flow cytometry on L6 positive H2981 tumor cells, FITC anti-human IgG. On the procedure: (§1) FIGS. 15a/b/c are line graphs showing that the bispecific 9.3/L6 sFvIg fusion protein binds to L6+ H2981 tumor cells and to CD28+ CHO cells. Panel 15A: L6+ H2981 tumor cells were incubated with L6 sFvIg ( - - - - ) at 0.5 μg/ml or 9.3 sFvIg ( . . . . ) at 0.5 μg/ml or 9.3/L6 sFvIg (_____) fusion protein at 0.5 μg/ml or with medium alone ( . . . . ). Panel 15B: CD28 CHO cells were incubated with 9.3 sFvIg ( - - - - ) at 1 μg/ml or 9.3/L6 sFvIg fusion protein (_____) at 1 μg/ml, or with medium alone ( . . . . ). Bound protein was detected with FITC conjugated goat anti-human IgG at 1:100. Panel 15C: CD28+ PHA blasts were incubated with FITC conjugated L6 α-idiotype mAb 13B ( . . . . ) as negative control, bispecific 9.3/L6 sFvIg at 0.5 μg/ml and bound protein detected with FITC conjugated L6 α-idiotypic mAb 13B ( - - - - ). Preincubation of cells with unlabelled 9.3 sFvIg inhibited binding of bispecific 9.3/L6 sFvIg as shown by a significant reduction in FITC-13B staining (_____). A total of 10,000 cells were analyzed per sample.
(§2) Binding activity of the 9.3 and 9.3/L6 sFvIg Fusion Protein: The binding of each sFvIg fusion protein was assayed by immunostaining and FACS analysis. […] 9.3 sFvIg and 9.3/L6 sFvIg were incubated with CD28 CHO cells and binding was detected using FITC anti-human IgG as shown in FIG. 15B. […]
In general terms: In flow cytometry, cells or beads pass a laser one at a time.

The target in experiment [4] is T1, human CD28. In words: flow cytometry on CD28 CHO cells, FITC anti-human IgG. The protocol: as §1, §2

In the case of 9.3 monoclonal antibody, in the experiment with human CD28 [1], the 3H-Thymidine incorporation, + blasts; 9.3 mAb came to 58800 and the 3H-Thymidine incorporation, + blasts; 9.3 mAb + 187.1 Ab was 98300.

In the experiment with human CD28 [1], “bispecific 9.3/L6 sFvIg fusion protein (bispecific antibody)” came in with a [3H]-thymidine incorporation of PHA blasts, 9.3/L6 at 0.05 µg/ml, +H3347 of 97800 cpm; a [3H]-thymidine incorporation of PHA blasts, 9.3/L6 at 0.05 µg/ml, no H3347 cells of 4000 cpm; a [3H]-thymidine incorporation of PHA blasts, 9.3/L6 at 0.1 µg/ml, +H3347 of 115000 cpm; a [3H]-thymidine incorporation of PHA blasts, 9.3/L6 at 0.1 µg/ml, no H3347 cells of 9600 cpm. For the same molecule, in the experiment with human CD28 [1], the [3H]-thymidine incorporation of PHA blasts, 9.3/L6 at 0.5 µg/ml, +H3347 was found to be 145000 cpm; the [3H]-thymidine incorporation of PHA blasts, 9.3/L6 at 0.5 µg/ml, no H3347 cells was 69200 cpm; the [3H]-thymidine incorporation of PHA blasts, untransfected H3347 preincubated with 9.3/L6 at 1 µg/ml, cells washed 3× is 98000 cpm; the proliferation of T cell blasts with 9.3/L6 sFvIg alone (FIG. 16) is greater than 0.1 µg/mL. The molecule also gave a concentration of native L6 antibody that gives the same staining as 1 µg/ml of the fusion protein with L6 antigen [2] of 0.5 µg/mL.

B1: 9.3 sFvIg (scFv, not shown: small tags and cut ends)
scFv: DIVLTQSPASLAVSLGQRATISCRASESVEYYVTSLMQWYQQKPGQPPKLLIFAASNVESGVPARFSGSGSGTNFSLNIHPVDEDDVAMYFCQQSRKVPYTFGGGTKLEIKRASGGGGSGGGGSGGGGSLAQVQLKESGPGLVTPSQSLSITCTVSGFSLSDYGVHWVRQSPGQGLECLGVIWAGGGTNYNSALMSRKSISKDNSKGQVFLKMKSLQADDTAVYYCARDKGYSYYYSMDYWGQGTSVTVSS
notes: Anti-human CD28 sFv of mouse mAb 9.3 fused to human Ig; from COS or CHO cells; also called 9.3 sFvIg fusion protein; monospecific 9.3 sFvIg
On to B1, for which the binding result with L6 antigen [3] was “no binding (tested: 1 µg/ml)”; with human CD28 [4], “binds”.
